In the domain aggregation screens of Martell et al. (2025):

Experiment: soluble fraction after stress (log2 fold change); higher = more stays soluble; pooled small domains, quantitative proteomics
Settings: stress: 75 degC
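Further: 20 min heating vs room temperature control held 20 min.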

Row | Sequence | soluble fraction (log2)
1 | HMAKRKYKSFKDVAEFAQKLGIKSSTEWWAYVRGHEIPSDIPKDPSTYYKKEWTTWGDFLGTGYVSSA | -0.513
2 | HMAKRTVPSVAEAIDNFRRQHRRMPSYAEMLPLLGVRSKSVVHFWINKLLENGLLEKDDKGYLTPGS | -0.134
3 | HMAKSPYDVLGLKEDAPFDEVKKRYRELVKKYHPDILMGRGESEEMIEKSTRKLQEINEAYETIKQRA | 0.119
4 | HMAKVDIPHEMVDQRIDEIVEEIKMNLESQNMSLDDYLKRMNQTEAQLRANYEATAAEQVRQGLV | 0.858
5 | HMALDSQEVGYNIEARGARPVVAQLGKAGQFSAVENSIRLGDDNWIALAPKLAGGGNAGFTAGIKSALS | -0.0514
6 | HMALIGSNLRHLRNERKLSQQELADLIRVGRTTIANIEANLANPGHKTLLEIVKVFDITIDELLHTDLTK | -1.79
7 | HMALKPKITIEELIRILNESKDLSDSETAKILNKDYTTAKYGKEFTSINVQGARYALDIATNTS | -0.145
8 | HMALLSNEDIMFNLEFNRDLAVASNDGVSRDEFLRNKYGISEEEYNMLRARYGDGLNAARIKEYVGQRD | -0.182
9 | HMALLSNTVDELHAGMRLDSYLFESGLYPSRSFAVKQIEAGKVFLNGDAVTKKTLVSNGDFIVYELEE | -0.854
10 | HMALMLGGLIVYLNTTAPRDDIDLIELSKDTKAMAAFGNKLASPDYNGKQFALDWHELSRDEIMSKYFS | -2.03
11 | HMALPDWLDPEAWAAWKRHRKAIRKPLTEDAVALSIRELAKLRDEGYGPTSVIENAILKGWQGLYPPK | -0.364
12 | HMALPGESVYVSILQSGSNRDQGVGYLDDGTMVVVDGAIKDIGKSIEVVINKSHQTVAGKMLFAKKVA | -0.667
13 | HMALPQPDDDRQDTKKRILDMAEDLLLTRGFNAFSYQHISSELGMKNAAIHYHYPKKNDLGVAVIQRYRRR | 0.128
14 | HMALQDKYAELLTAANTMGVTNLAVAEKDGTLHVSGTAKSTADYDSLWALYDKIDPNMASGDLMMNI | 0.36
15 | HMALQDKYKELTDAATAAGVTDLQVREQDNVLYIDGTAPSGAVKDQLWAIYDKIDPNFVSGDLVLNVNVD | 0.0863
16 | HMALTLDEARTQGRVGETFYGYLVALKTDAETEKLVNDINAERKASYQQLAKQNNVSVDDIAKLAGQKLV | 0.00592
17 | HMALWFDEWKKYQDTIASADLLPDKAERDALIAQAEDRFNYWMDIYPRSASLNHSFDDLYEEHRRKIE | -1.01
18 | HMAMDYEGFKKSVYALTSIDLNAYKERQMKRRIDTLIAKNKYNGYEDYTAAIKKDKALFEEFVNYLTIN | -2.05
19 | HMAMMTKQRLIQLIHIARNDLQMDEDTYRQMLQGLTGKASTKGMDTPQLNRVLESMKKKGFRIK | -1.69
20 | HMAMNLQETVLMQLRDLILRGTFEPGQRLSEQPLAERLKASRTPVRSALVTLEQEGLIEASETGKYLVRQ | -0.821
21 | HMAMTNEEREALISEIKQTVNNSIDLKKDISDTEIKEAITQAVFERSEKSYLSIAEKQDIITAVFNSMR | 0.378
22 | HMANADVVLVDLDKEYTVDAAKFHSVVKHSPFNGFAVKGAPVLTIVRGTVVAENGEVVGQPGHSKMVRP | 0.108
23 | HMANEGWDIYKLDIRNHKQPNGEYYSEKEIQSTINNTFGKGSFNVDWKKYEKDKEYREKTNYYYFQAKYFV | -0.903
24 | HMANHIAAIHVLKSKLQMSDSDYRVLITGLTQKASTKDMSDIERQRVRDHMQGLAERMGVVK | -0.66
25 | HMANIAVTIPTGSSGDRIADILLQAGLIKDKQDFNQAVIAAGAEGKLRAGYFVIPSNATPAEIISILT | -0.521
26 | HMANILKHKNKDGVITSYTIRVYHGYDEAGKRLRPYTMNYKPAPNMTARQIEKELNRQAVQFEEQIKNGYA | -0.892

Row | Sequence | soluble fraction (log2)
27 | HMANKLTSTNLAKQHKMGLSEMYAELMNSGYLIEKDGKYELTPLGISIGGESKPNRYKKGEFYFLWPSDIS | -0.618
28 | HMANLLNLREIPVANIRPELTMFLIPGENITQAFQTIRDQVVFTNKRLIVANVQGLTGKKVSYTSYPY | -0.38
29 | HMANPFQELTERELDVLRQVAAGKNNREIAEALFIGEKTVKTHISNILSKLHLADRTQAAVYAWQQGMM | -0.223
30 | HMANTVVMPNLLGKTMTEAKIELKELGIDITLKGSESSSKYSAGQIMEQNIAEGTKVEVGSSVEVTIAGS | -0.579
31 | HMAPAPDEAFAEFVRSSAPSLTRTAWLLTGDRGHAQDLVQNAYAKTLQAWGRLDAEGALAYTRRAVIT | 0.174
32 | HMAPDGIEDKEGWLKVLPMITNLSIQMQNLQARGMDYEHIRNLLHETLLRYDDRIDSNLFIPNV | -0.059
33 | HMAPDNDELEKAKKIVNAFIEAKAKGLGVVSLGTKMIDAPVVKRAQKIIDQTIVMGKLSLNWQDEFFN | -0.208
34 | HMAPEVTVHDGSIVVRGHVGGVTVYDESGRQIASVQSRGAVAIPVPAGHTYLYIVKPEGKPAIKVRAAH | -0.265
35 | HMAPKSALKIIEQISNNPRATMTDLANLTGYSRRWVAQTIKRLQEENIIKRIGSDKSGYWEIIG | -0.807
36 | HMAPLATLEADGNGAVKLPNLAGHAIREVAAALGGANLALIPIGSGTSWKQNPAPGTILHKGDTVTVYF | 0.153
37 | HMAPLEPLTDRETEMLVRLANGASNKVMARESFVSENTIKFHLKNIYAKLGVTSRLQAIAAARNQGLI | -1.31
38 | HMAPLRTQYVNVNYANAAEIKTLISGADKEVGSLLSERGSVVVDKRTNTLIIQDTQARLNDIGDLIEQLD | 0.144
39 | HMAPMYGEFENVRLTDAQLDKLNARFPPEQVQREIEALSGYMRSKGKRYADHYATLLNWLRRDFPP | -0.238
40 | HMAPNVEENSKLIGEIGMTLTPLRPSGIATINNRRVDVVSNGDFIDQDERVMVKRVQGARVVVIPV | 0.168
41 | HMAPPDFTTFMRNYQDMVYSTAVRLIGNETQAEDIAQEVFIKAHAHFENLRTSPSAGGWLKTVATNLSIN | -1.2
42 | HMAPQAETLLRQVMALPSKDRAVLYLHYYEGFSTREVGDMLHISQSAVTTRLLRARKKLKEIL | -0.122
43 | HMAPRLTERERQVLQLIAEGLTSMQIGDRLHIAASTVDVHRRNLMRKLDLHNVADLTRYAITQGISP | -0.792
44 | HMAPRQDIAYYTVKPGDTVLAIAEKFGLQPETLMWSNSIIEQNPDRLSIGDELRILPVDGVLHVVK | 0.129
45 | HMAPRSSAVYFYLSQVALKKNQPRKAEAMARRGLTVSQDANRRRALWQLILRSGQAQNNTRVIREAQQAL | -0.0212
46 | HMAPSLSEYAYEEIKHAIERGVYPPGAKLITQEIADRLGISRTPVVAAVNRLTAEGYADAVPQHGIFVK | -0.073
47 | HMAPVLTRREHEVLHLLTDGLDNRTIARNLFISEATVKFHLHNIMGKFGVHRRAALVSTALRG | -2.22
48 | HMAPVTPEERAQAMEEYKAMVTIEGYTPPKNIIEQNYKRGLWSETMLNMAVTKGAITEAEKLEIMN | 0.463
49 | HMAQIVNLPRKNVNGASYYYYEVQPKETIYSISRKLGVSGAEIQRHNPSVADGLKIGQVLYFPAEG | -0.0642
50 | HMAQLPADMSKVKSADISEAQLQEFIQKATSSGYNMNQIEMEFAKRGMSENEVSLLRPRLRRLMAS | -0.0413
51 | HMAQLSDDEQAIIDTITRRGDATMSELIASVNVSTPRLMSMLIDMEFRSLITALPGGRYQIRLIN | -1.54
52 | HMAQLTPREREVLVLIAEGKSNKEIADQLNIGVRTIETHRERIMRRLNIHSVAGLTKYAIANGLVTL | -0.36

Row | Sequence | soluble fraction (log2)
53 | HMAQPIPSGADIRAAREAAGMTLRRFAEYIAGPDFSTWSRYETGKPIRVKNISPEVWQRVRKFIAQNKG | -0.33
54 | HMAQQEMEIIPLRHRQVEQVMPTLRPLLEPGAALSGMNNQLILRASRKNREEIKQALAVIDT | 0.0427
55 | HMAQSEDLMVMAQRILGGPEAQSFFQAEATRQGLAGFLPEPIPDFLQRLERKLSGSVGSATAHAMVAQTMG | 0.0569
56 | HMAQSLAQKINNYILTNRSSIANVAKSIGYSRTTVSRYLAGKYDSDPTDLENKLAEFLAHETGE | -0.253
57 | HMAQTEIIRVTKDIKKGDAITADKFEKVKVGAYNLPGNVVKNADELKGKFAAADLVRGDYILTSKLTDNP | 0.183
58 | HMAQVRSTVERRENGTYTVELNLNDDVDNVMRLQLMVATKEMAEDLAQRFQKNPEQVYSQLVTALYG | -0.723
59 | HMAQVSDDAELEKWADTAIDEHPKPVEEYRAGNAASINFLMGQVMKMSRGKANPGAVMQILKQKLD | 0.0191
60 | HMAQVSDTGAIAKIVADAIAANPKQVQQYLDGNEKVLMYLVGQVMKLSKGKANPPMVIQLLKEQLG | -0.125
61 | HMAQVSDTGELEGVVDGVLAANAKSVADFQAGKENAFQYLIGQVMKETKGKANPEVVATLLRTKLS | -0.523
62 | HMARAGKLAQDMAVWTKETMLNTERNFISLRHFKRELLRRTLAPGESEQTVRAMEEAGYIQVKDGLVFPIK | -2.43
63 | HMAREQISVSQMVRDVRDGQVKNIEVLGQELRLSYADGSQKVTRKEEGQQALEILFASDIDLAALDLEVQ | -0.0792
64 | HMARIDYHAMDSDDLSFSEGELLEIYDKPGSFWWKGRSLVSGDEGDIPS | -0.0708
65 | HMARKFQKDTGYLNKKERTWLLDFFPSLKKYLYTGAYIRSIIVVESNVTYTDKELPSNYTFTYKFA | -0.522
66 | HMARKISVEALGKYFPNSPMLAAAVAVTGVMKKDEFIHEMRASYKHKFAKKPEVIDGNMKALTMTFEA | 0.11
67 | HMARNHYETLGVGRTATGDEIRKAYRSEAQKHHPDRGGDAERMQSLNEARDTLLDDQARAAYDQELDL | 0.154
68 | HMARPLLSPREQDVLALIARGFSYSEVARLQAVTVHTIRTHIRNLYAKLSVHSKTEAVFEATRMGLLP | -1.94
69 | HMARRKRDIDSDINVKVFEHWLDNLDSASRESFSAFAEETFSPIQVYLYAKFLGYESSIIAVDHWVAVAYP | 0.135
70 | HMARSVAEFVERGRSGGSLERPKLQRMLEYIQDRPVDFVIVHKIDRLARNRADDAAITKTIRGAGAYLVST | 0.1
71 | HMARTGSEELVGALATVREPLAPWGQVFVQGALWRARSADGGPVDAGQQVVVRAVEGLTLVVEPRD | -0.143
72 | HMARYSMLEEQLLQLINKHGTMSTPKLVEATGAPRSTVTYQLRKLLESGTIERTQPARSPKQSYRIKS | -0.416
73 | HMASATGVVTAASLNVRSGAGTNYSVVNTLAKGTKVTVLNTADGWYEIEATVNNEKITGYVSATYIAMD | -0.538
74 | HMASLSRRELEVLELLALRLTVKEVAERLVISELTAKRHTSNIYQKLGVNRRRDALAAAQARGLLGAR | -3.18
75 | HMASRSQTEIMHLLSSGLPKHELVTALQSLLGISKPTAYKYLSQDVSIAYDHMVKILEYPPFQRVLYQ | -1.93
76 | HMASSVKAPLPGVILDIKVKVGDTIKNGDTVVILEAMKMENNIHSDKDGVVKSIEVNKGDSVLEGATLLTI | 0.33
